This is an account of results in publication PMC3983046.

For one series, the target named is Ash2LN K225E (human, UniProt Q9UBL3 95-280, K225E). Briefly: EMSA. (A gel shift assay detects complexes by their altered migration in electrophoresis.)
The target in the next series is Ash2LN K229E (human, UniProt Q9UBL3 95-280, K229E). Briefly: EMSA.
Chain of Ash2LN K229E (Q9UBL3 95-280 K229E): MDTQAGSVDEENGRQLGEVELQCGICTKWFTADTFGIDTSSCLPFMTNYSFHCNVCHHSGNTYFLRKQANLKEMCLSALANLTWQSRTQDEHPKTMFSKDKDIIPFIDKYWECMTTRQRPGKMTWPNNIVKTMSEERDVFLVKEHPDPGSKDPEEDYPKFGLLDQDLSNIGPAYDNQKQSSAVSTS

Chain of Ash2LN K225E (Q9UBL3 95-280 K225E): as the sequence (Q9UBL3 95-280 K229E) above, with K131E, E135K counted along it

B1: HS2 (dsDNA)
DNA 1: GCAATGCTGAGTCATGATGAGTCATGCTGAGGCTTAGGGTGTGTGC
DNA 2: GCACACACCCTAAGCCTCAGCATGACTCATCATGACTCAGCATTGC
With B1, the binding result in the series with Ash2LN K225E and with Ash2LN K229E was “no binding” throughout.
